Target: CXCR4-Tango
Assay: Tango (TEV-cleavage luciferase reporter of arrestin recruitment); Tango-Trio, basal: HTTL-B1 / HTTL-B2 cells transfected with GPCR-Tango constructs, with against without cumate (30 µg/mL) or cumate dose-response, no agonist; in Fig. 7 also with inverse agonists/antagonists at EC80

- fold change in constitutive β-arrestin-2 recruitment (with against without cumate): 67 fold
Substance: β-arrestin2-TEV219 (from UniProt P32121 1-409) (natural protein)

From article PMC10322906
